# ± gives the half width of the 95% confidence interval.
# Test: folding stability dG unfold from trypsin proteolysis; higher = more stable
# Procedure, shortened: (§1)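 Unfolding free energy was derived, per protease or combined, by relating Bayesian-fitted K50 values from sequencing counts to a sequence-predicted unfolded-state K50 and a shared folded-state K50. The underlying digests exposed cysteine-free mini-proteins under 80 residues, in a PA-tagged cDNA display construct, to trypsin and chymotrypsin at 11 threefold-diluted concentrations and to a no-protease condition. A filter kept only designs with AlphaFold2 dimer inter-PAE above 15.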
row,Sequence,folding stability dG unfold
1,SAGGSAGGSAGREIADEIKDILQEKGFEIKDIEVTRPPNGYPMVEITVRHDNGKKWTIWISAGGSAGGSAGG [r11_780_TrROS],1.5 ± 0.038 kcal/mol
2,SAGAATINPNPLTLEIESPDGTKYTVSPEEVQKIKDELEAKGKPPTLEEILNEIKKRFPNWRVSYSPESAGG [r19_46_JUSTAS],3.06 ± 0.076 kcal/mol
3,SAGGSAGGSAGMLETIELPDGKRVRYDPVTGEWFVELDPELEEEVRERLDPDLPVRFEEVSAGGSAGGSAGG [r11_374_JUSTAS],1.74 ± 0.081 kcal/mol
4,SMTLIVRVEVENENGEKIEKEVEVEVEPGETIEELLKKLNLSEEEVKKVKIEVYVIKDGKLEKKEFTLEKSA [r9_755_TrROS_Hall],1.29 ± 0.2 kcal/mol
5,SAGGMPVLEREFTIPLPDGTPLRVTVRYFPGTGRALVTLRPVGTGEPLATVPLSELPPELRAALAEESAGGS [r8_32_TrMRF],2.42 ± 0.063 kcal/mol
6,SAGGSPPPVEVTPITHINGGEPVPTRVETYPDGTVTVHITLPDGSSGTLPAEELAELLAAPGSLGDFSAGGS [r16_105_JUSTAS],1.53 ± 0.071 kcal/mol
7,SAGGSAGGSAGGSNIEIEYNPNMMTIRIEPGDKPIEIQIKSPMTMEEFIKTALDKFPGISAGGSAGGSAGGS [r4_191_TrROS],0.394 ± 0.061 kcal/mol
8,SAGGSAKKKTIELTIVIKIKKKPGETAEEIAKKILDALKKLLPPGAKIEIEVEVKDDYIVIKVKIESAGGSA [r15_739_TrROS_Hall],2.49 ± 0.14 kcal/mol
9,SMLIVAEGDTVTVELIATYTVVERDPDDPNRYTLRAFPLPLTFTVDPNDPEALRRFLEAAPPGFTPVIVGSA [r9_476_TrMRF],2.62 ± 0.092 kcal/mol
10,SAGGSDKEHDVEIKINIYVHDDGYIHIDIEVYNPGSPRPIMKFTIHIPAKDMQKKTGRPMTLEDILSAGGSA [r2_180_TrROS],1.73 ± 0.16 kcal/mol
11,SAGGWLWVRTNGRIFVIEIKTEMKWEYDPGDPGQWRMDMEPEIEVRPIPPDDIKPLPPVDEDDPENKSAGGS [r16_395_TrROS],1.68 ± 0.13 kcal/mol
12,SAGGSAGGSAGGMKVERVEVVELPNGQRVLTRTLEVVPPDGSSRVLETEVRFYPPDEALLSAGGSAGGSAGG [r7_917_JUSTAS],-0.666 ± 0.38 kcal/mol
13,MAIVHIDFSFPDGGPTLSFEIPVPNLGPAGEEEILERASELTGISREVIRKNTEIEPIPETGDYKVTINVSS [r1_285_JUSTAS],1.46 ± 0.033 kcal/mol
14,SAGGALENAPITVNVTITITLKDEKGNTPVITIPVTATVTSQAEADALVNATAAALEAALGATVTVASAGGS [r8_149_JUSTAS],1.65 ± 0.12 kcal/mol
15,SAGGSAGGSAGMINPKDVVEVSSSTDPNSSSGTLTVTLKDGKEITISYSSSSEAEAALLGSAGGSAGGSAGG [r11_339_JUSTAS],1.1 ± 0.061 kcal/mol
16,SAGGMVTKTYEFEGENGGKILIEVKEDPDKPVVTVKFYRPDGKPLFEAEIEADSIEDAIQQAKDLLASAGGS [r16_158_TrMRF],3.45 ± 0.12 kcal/mol
17,SAGGSAGGSFEFPENRPNAKVKVVVQRPDGSPEEFEAEVLPDGTVTLDLPDYPIDRILSVEFGSAGGSAGGS [r12_477_TrMRF],0.0306 ± 0.12 kcal/mol
18,SWVEIPPDKIKDLMNRFQNGDWEEIVDLLKDLGFKNVTIEPQRNNGQRYFTIWVEHPDGPVIIEMPPSDISA [r9_783_TrROS],2.39 ± 0.082 kcal/mol
19,SDLEAVLAAIDAVPPGTVVRIRLTLPDGVPLEITFDAGKEEIKALLEELVKEHPDVPIGIEIEVFPPEELSA [r9_37_TrMRF],3.38 ± 0.1 kcal/mol
20,SAGGSAGGSAGGPTVTVKVKLEDGSTATVTYDLDTGELYIEVNGKTYKFPLGSKVEIEEVSAGGSAGGSAGG [r7_434_TrROS_Hall],2.39 ± 0.28 kcal/mol
21,SAGGSASPFYIAYDPNKPNVATIYPSSQPNLSGSNGATVTPLTDEAELAALKAELKAAGITTITFSSAGGSA [r15_1004_JUSTAS],0.834 ± 0.054 kcal/mol

# Test: folding stability dG unfold from chymotrypsin proteolysis; higher = more stable
# Procedure, shortened: as §1
row,Sequence,folding stability dG unfold
1,SAGGKKYYLIKITVKTEKKEYTLPDGSKVTVEKTYELTIIVESKEEAEKLAEELAKKYNLEVEIVPLSAGGS [r8_131_TrROS_Hall],4.83 ± 0.064 kcal/mol
2,SAGGSVVPASEPVTIPDTATGTTLTLPTPAGATITPDPATNTTTVTFTDGDRASSVTFVNGAATSASTASAG [r5_22_JUSTAS],-0.139 ± 0.21 kcal/mol
3,SAGGSAGGSNMPPGMEVEMEPIIEREIKNPNGRKLKIKIYVMKIRPPGGPPMFFIALDIQILDSAGGSAGGS [r12_544_TrROS],5.03 ± 0.28 kcal/mol
4,SMEELLEKALEEAKEAAEKGEKTVIIEIRVDGKTFRIEIDVETGEIVKIEKEKREDGSEIFRIEIKLPEPSA [r9_308_TrROS_Hall],1.61 ± 0.086 kcal/mol
5,SAGGSAGGSAMYVKVTFTYPDGSTTTVTTQLDEEEAKKLVEELAPLPVEAKLEIIPEDVPESAGGSAGGSAG [r3_35_JUSTAS],0.249 ± 0.23 kcal/mol
6,SAGGEKLETFPFKGDDDREVTLVRFEGEDRILLLVYDPDTDKVLLIAPDAIAEIDLKTGEAKVILKKSSAGG [r13_416_TrMRF],2.111 ± 0.016 kcal/mol
7,SAGGSAPPQTIPIIIKDPNGKVRIEPVQFDPGPGNFNWDIEHPNGEKHTITFTGPPDDLPPGDYIKSAGGSA [r15_596_TrROS],1.37 ± 0.068 kcal/mol
8,SAETTTETKVEEITLEDKKATINITTYSDGSTEATITIYGNDPKVKEKVKEYIKKKDPNIKITKIETKESAG [r14_611_JUSTAS],3.25 ± 0.043 kcal/mol
9,SAGGSKKIVKEMKSKEVIDLAKKLKEKKDIIIVVKLNGKVKVLDLDKVKPIPDKNVKAIIEIKPKKKSAGGS [r16_628_TrMRF],0.901 ± 0.094 kcal/mol
10,SAGGSAGGSAGMETPVLYNVTVTPPDGSTTTYTVPEGLSEEEIRALLNVPASDTITFSPVSAGGSAGGSAGG [r11_340_JUSTAS],2.02 ± 0.029 kcal/mol
11,SAGGDEIVDRIKQAFHNFGYPVRIDDISPPNGKIYIRISPAMRENMKPAIIEIPFPGIKDITIEMWPSAGGS [r8_318_TrROS],1.49 ± 0.14 kcal/mol
12,SAGGMKYLIKIEVDGKEIEIEAESLEEAEELAKKLEEEGIEIEVKKIEIYELPEEEEEEEEEKKKKESAGGS [r8_336_TrROS_Hall],2.24 ± 0.08 kcal/mol
13,SAGGSAGGSAGGKKTLKLPVKITPVKDGLLITLPDGTPILVPKNVTVETTDTTAYVTIGSAGGSAGGSAGGS [r10_305_TrMRF],-0.375 ± 0.28 kcal/mol
14,SAGGSAGGSAGGSMLVTEVSISPLPNGTVKVTTKLVLEPPDGVSVLEEESSVVSPEELSSAGGSAGGSAGGS [r4_389_JUSTAS],0.687 ± 0.041 kcal/mol
15,SAGGKWIMFMIPPGEEIEDPNGLEIRYDPEEGEFEIENNKRPVKIPVHPHPDGWYMITIEIPPGVEVSAGGS [r16_245_TrROS],1.12 ± 0.23 kcal/mol
16,SMKIYILSSGDKEKVLAEVKEKYPDLEIELFEDIEEAKKAAEKGNLLISNGDEELAKEFEEKYNVKVIIKSA [r9_380_JUSTAS],1.65 ± 0.041 kcal/mol
17,SLTLTDPVLVLVEVDLYNPETGAPTKRSLAVLVPPGTPVTVTLPGVHPDARVRVTVYTPNGKPLGEFELPSA [r9_478_TrMRF],2.12 ± 0.12 kcal/mol
18,SDDKNMKPVKFKVEIEEERIEENGKKYIKIEVTWPGGNTVKIWFDPDKLIITFPVRSVEDVLEEVKDLIKSA [r9_662_TrROS],3.52 ± 0.039 kcal/mol
19,SAMKLEAPVVLDGKPVEVEFDAEPFEAPDGDVYYLVPLKVTFPDGRTYTARLRLKPGGKIVSVELLSDESAG [r14_341_TrMRF],1.31 ± 0.19 kcal/mol
20,SAGGNMWEQIRMIVRELAKEGHPWITFDKIHKELGRPITPEWREWLRDAGFIEHDPNGSMTFRIPPGASAGG [r13_188_TrROS],0.89 ± 0.1 kcal/mol
21,SAGGWRIKLERDPENGKIKVSIERSPNEGYATVEVKLPNGKPLEIPGPMDSPDEMEEKARDYIKKLLSAGGS [r16_319_TrROS],1.01 ± 0.086 kcal/mol

row,Sequence,folding stability dG unfold
1,SAGGSAGGSAGREIADEIKDILQEKGFEIKDIEVTRPPNGYPMVEITVRHDNGKKWTIWISAGGSAGGSAGG [r11_780_TrROS],1.91 ± 0.095 kcal/mol
2,SAGAATINPNPLTLEIESPDGTKYTVSPEEVQKIKDELEAKGKPPTLEEILNEIKKRFPNWRVSYSPESAGG [r19_46_JUSTAS],3.59 ± 0.04 kcal/mol
3,SAGGSAGGSAGMLETIELPDGKRVRYDPVTGEWFVELDPELEEEVRERLDPDLPVRFEEVSAGGSAGGSAGG [r11_374_JUSTAS],1.54 ± 0.063 kcal/mol
4,SMTLIVRVEVENENGEKIEKEVEVEVEPGETIEELLKKLNLSEEEVKKVKIEVYVIKDGKLEKKEFTLEKSA [r9_755_TrROS_Hall],2.61 ± 0.077 kcal/mol
5,SAGGMPVLEREFTIPLPDGTPLRVTVRYFPGTGRALVTLRPVGTGEPLATVPLSELPPELRAALAEESAGGS [r8_32_TrMRF],3.102 ± 0.026 kcal/mol
6,SAGGSPPPVEVTPITHINGGEPVPTRVETYPDGTVTVHITLPDGSSGTLPAEELAELLAAPGSLGDFSAGGS [r16_105_JUSTAS],-0.455 ± 0.033 kcal/mol
7,SAGGSAGGSAGGSNIEIEYNPNMMTIRIEPGDKPIEIQIKSPMTMEEFIKTALDKFPGISAGGSAGGSAGGS [r4_191_TrROS],0.224 ± 0.18 kcal/mol
8,SAGGSAKKKTIELTIVIKIKKKPGETAEEIAKKILDALKKLLPPGAKIEIEVEVKDDYIVIKVKIESAGGSA [r15_739_TrROS_Hall],2.76 ± 0.09 kcal/mol
9,SMLIVAEGDTVTVELIATYTVVERDPDDPNRYTLRAFPLPLTFTVDPNDPEALRRFLEAAPPGFTPVIVGSA [r9_476_TrMRF],3.43 ± 0.039 kcal/mol
10,SAGGSDKEHDVEIKINIYVHDDGYIHIDIEVYNPGSPRPIMKFTIHIPAKDMQKKTGRPMTLEDILSAGGSA [r2_180_TrROS],2.75 ± 0.074 kcal/mol
11,SAGGWLWVRTNGRIFVIEIKTEMKWEYDPGDPGQWRMDMEPEIEVRPIPPDDIKPLPPVDEDDPENKSAGGS [r16_395_TrROS],2.09 ± 0.27 kcal/mol
12,SAGGSAGGSAGGMKVERVEVVELPNGQRVLTRTLEVVPPDGSSRVLETEVRFYPPDEALLSAGGSAGGSAGG [r7_917_JUSTAS],0.291 ± 0.06 kcal/mol
13,MAIVHIDFSFPDGGPTLSFEIPVPNLGPAGEEEILERASELTGISREVIRKNTEIEPIPETGDYKVTINVSS [r1_285_JUSTAS],1.14 ± 0.033 kcal/mol
14,SAGGALENAPITVNVTITITLKDEKGNTPVITIPVTATVTSQAEADALVNATAAALEAALGATVTVASAGGS [r8_149_JUSTAS],2.04 ± 0.14 kcal/mol
15,SAGGSAGGSAGMINPKDVVEVSSSTDPNSSSGTLTVTLKDGKEITISYSSSSEAEAALLGSAGGSAGGSAGG [r11_339_JUSTAS],1.52 ± 0.12 kcal/mol
16,SAGGMVTKTYEFEGENGGKILIEVKEDPDKPVVTVKFYRPDGKPLFEAEIEADSIEDAIQQAKDLLASAGGS [r16_158_TrMRF],3.76 ± 0.11 kcal/mol
17,SAGGSAGGSFEFPENRPNAKVKVVVQRPDGSPEEFEAEVLPDGTVTLDLPDYPIDRILSVEFGSAGGSAGGS [r12_477_TrMRF],-0.377 ± 0.19 kcal/mol
18,SWVEIPPDKIKDLMNRFQNGDWEEIVDLLKDLGFKNVTIEPQRNNGQRYFTIWVEHPDGPVIIEMPPSDISA [r9_783_TrROS],2.87 ± 0.044 kcal/mol
19,SDLEAVLAAIDAVPPGTVVRIRLTLPDGVPLEITFDAGKEEIKALLEELVKEHPDVPIGIEIEVFPPEELSA [r9_37_TrMRF],3.71 ± 0.093 kcal/mol
20,SAGGSAGGSAGGPTVTVKVKLEDGSTATVTYDLDTGELYIEVNGKTYKFPLGSKVEIEEVSAGGSAGGSAGG [r7_434_TrROS_Hall],3.56 ± 0.054 kcal/mol
21,SAGGSASPFYIAYDPNKPNVATIYPSSQPNLSGSNGATVTPLTDEAELAALKAELKAAGITTITFSSAGGSA [r15_1004_JUSTAS],0.355 ± 0.22 kcal/mol
